Measurements taken from paper doi:10.1101/2024.01.05.574350, “Heparan sulfate selectively inhibits the collagenase activity of cathepsin K” (bioRxiv, 2024).

Molecular target: T1, mature cathepsin K (murine) (murine, UniProt P55097 115-329)
T1 construct: cathepsin K, murine; catalytic Cys25; 22 kDa as printed; No tag is named; also called CtsK; mature CtsK; source: 293-Freestyle cells, transient expression of pro-CtsK
T1 sequence (looked up): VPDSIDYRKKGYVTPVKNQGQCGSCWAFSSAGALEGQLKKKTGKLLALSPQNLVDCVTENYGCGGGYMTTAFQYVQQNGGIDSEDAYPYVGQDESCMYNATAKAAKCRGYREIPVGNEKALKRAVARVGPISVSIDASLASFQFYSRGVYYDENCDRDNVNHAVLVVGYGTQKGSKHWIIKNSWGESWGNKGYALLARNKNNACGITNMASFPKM
Test: SEC; CtsK and Cst3 without HS, Superdex200 column
Conditions: both partners purified

stoichiometry N: 1
B1: Cystatin C (natural protein, UniProt P21460 21-140, looked up)
chain: ATPKQGPRMLGAPEEADANEEGVRRALDFAVSEYNKGSNDAYHSRAIQVVRARKQLVAGVNYFLDVEMGRTTCTKSQTNLTDCPFHDQPHLMRKALCSFQIYSVPWKGTHSLTKFSCKNA
notes: Cystatin C (Cst3), 13 kDa as printed; The printed residues (Pro7, Met9, Leu10, Gly11, Ala12, Leu56-Gly59, Pro105-Lys107) fit mature mouse cystatin C as I recall it, not the human protein; human cystatin C (PDB 3GAX) was only the search model for molecular replacement; also called Cst3; Cts3
